# Source: US20240026407A1, “MODIFICATION OF SAPONINS” (GLAXOSMITHKLINE BIOLOGICALS SA, priority 2020, published 2024)
# B1: 325 (protein, listed as Ilumatobacter coccineus)
# chain: MTGTSTGARRGIICGVIDIDAALNALSLADKCRLVAGETNWRTKAFPEAGIPQLKMSDGPTGIRGEGHGSAGTPGVAVPAGITLGASWDPDLLGEIGDLLGREAVRKRAHVLLGPTVNLHRTPIGGRTFECYSEDPELSGALAASYVRAVQRHDVAVTVKHFVCNDTEIDRMTVDVDVDERPLRELYLRPFERAVKEGGAWGIMTAYNRVAGEFAAQNRRLLTDILRGEWGFDGFAVSDWFGVHEPVGAANAGLTLEMPAPVRVYGDRLLAAIEAGSVTEETVDGLVRDLLGVMNRTKADERNCDEPELSIDDPAERALTRRAAIGGTVLLRNEPIDSSGHPVLPVALDGLASMAVIGPNAVIDRSMGGGSASLTPFDHRTLLDALSDRVGPDTDVRYEPGVRIDRLTPIVRSARLRTPDGADGLRLEYVNGTDWDAPATIDTVTSSSMIRFFGTTPDEIDATAFGARVSGSFVPEIDGPHEIGVVSTGPVTMTARTGDGDPIVVVDDPDMLLPRTREFFGYGSEESVATVECRAGEPVHLEVKWRTSAENGFAALRIGVRPPEPSDLIDRAVAAAAEADVAVVVVGTNDEWETEGFDREVMSLPGRQDELVERVVAANPNTVVVVNAGSPVSMDWAADDHPRPAAAIVTSFFAGQEQAEAMVDVLTGVADPAGRLPITYPQRLADTPAFEHHEPVRSAGRPPQQRYAEGLFIGHRHYEANDVAPRFWLGHGLSYGSVEWSTPTASRTSDTAASLDDSPIVVSLSLTNTSDRDATSVVQCYVAPIAPSVERPVRELKAWAKESLPAQARRDVSIELGSSAFRHWDEESGAWKVEPGEYDIVVATSADPDDEHERLRITIT
# B2: 240 (protein, listed as Acidipropionibacterium acidipropionici)
# chain: MTELTDLPQYLLIRLLSGADDWRTVAAGEVGVRSLHLSDGPHGLRVPDVKGGSLPATCFPTAVTLGASWDRDLAEEVGGALAVEAGALGVDVVLGPGMNIKRHPLGGRNFEYLSEDPVVSGELAAAMVRGIQGRGVAACVKHFAVNNQETMRLCVDAVVDERTLHEIYLAAFETVVRTARPAAVMASYNEINGTAATTNRSLITEVLRGRWGFDGLVMSDWGAVWDRVAALEAGLDLEMPSSAGAFDRSVAAALDSGRLGLDAVLTSVSRLVGLQNRISPPRIDRIPADEHDALARRAATAGTVLAANDGILPLAAGSKVAVIGAFAARPRYQGSGSSQVNPTRVTGLLEALGAKDVEVGYARGYDPEEQRTDAVLVAEAAELAAASDVAVVVTGPPEELESEGYDRTGMDLPAQHDALVRAVLAANPRTVIVVCSGSPVALPWADRAAAVVLAGLGGQAGGGALADVLVGDAEPGGRLAETWPHDLSEVASDPWFPGTGAMVQYREGSAIGYRHTATNGVEPAFCFGHGLSYTRFDWRDAVLTEPWIVAGDGLSVDVEVANVGDRAGSDVVQVYLSDRTGVVSRPRRWLAGFAKVRLEAGQSRRVQVAVGARELGFWDVEKHDWVVPSGHFDVELGRSAHDIVATLDLVVSEGADHAPERAWTPLIAEDDEAFAARLGHEIPRPAATTPFTARSTLGQVRHTPLGGLLHAAAMRRLAAGVRDPRFRRMMEHTVDELPLRNLPSMTKGLVPLESVSLIVDVLNGAPDEILRRSFGGALGLGRGVVDAGRGLWGELSSRIGRLGR
# B3: 338 (protein, listed as Hungateiclostridium thermocellum)
# chain: MAVDIKKIIKQMTLEEKAGLCSGLDFWHTKPVERLGIPSIMMTDGPHGLRKQREDAEIADINNSVPATCFPSAAGLACSWDRELVERVGAALGEECQAENVSILLGPGANIKRSPLCGRNFEYFSEDPYLSSELAASHIKGVQSQGVGACLKHFAANNQEHRRMTVDTIVDERTLREIYFASFENAVKKARPWVVMCAYNKLNGEYCSENRYLLTEVLKNEWMHDGFVVSDWGAVNDRVSGLDAGLDLEMPTSHGITDKKIVEAVKSGKLSENILNRAVERILKVIFMALENKKENAQYDKDAHHRLARQAAAESMVLLKNEDDVLPLKKSGTIALIGAFVKKPRYQGSGSSHITPTRLDDIYEEIKKAGGDKVNLVYSEGYRLENDGIDEELINEAKKAASSSDVAVVFAGLPDEYESEGFDRTHMSIPENQNRLIEAVAEVQSNIVVVLLNGSPVEMPWIDKVKSVLEAYLGGQALGGALADVLFGEVNPSGKLAETFPVKLSHNPSYLNFPGEDDRVEYKEGLFVGYRYYDTKGIEPLFPFGHGLSYTKFEYSDISVDKKDVSDNSIINVSVKVKNVGKMAGKEIVQLYVKDVKSSVRRPEKELKGFEKVFLNPGEEKTVTFTLDKRAFAYYNTQIKDWHVESGEFLILIGRSSRDIVLKESVRVNSTVKIRKRFTVNSAVEDVMSDSSAAAVLGPVLKEITDALQIDMDNAHDMMAANIKNMPLRSLVGYSQGRLSEEMLEELVDKINNVE
# B4: 116 (protein, listed as Streptomyces netropsis)
# chain: MPDDPVDVLDLDTKARLLSGQDMWSLPAVPRIGLRSIVMSDGPVGVRGVRWTADDPSLALPSPTALAATWDPALARRVGRLLAAEARRKGVHVLLAPTVNLHRSPLGGRHFEAYSEDPYLTARIGTGYVRGVQDGGVAAVVKHFVANDAETERFTVNNKVSARALRELYLAPFEAIVKDARPWGVMAAYNQVNGVTMTEHGHLQNDVLRGEWGFDGIVVSDWLAARDTVRAALGGLDVAMPGPVTVYGPALAAAVRAGDVPESVVDDAVRRVLRLADRVGALGEATRARPSAPDGRALAREVAARSFVLVRNAPVRGAPALPLDPAPGLRVALLGGAARDARILGGGSAQVFPARVVSPLDGLRAALPEGAVTYAVGAEPGDELLPAGAGFTLRAVCRDAAGRMLGEERMPSGMVQWLGDLPAGVGYEALRTVELTGTFTPRESGPHVFGTKGVGAFRLVVGGRTLFDGEQGADHADPFEAFLGSPVERGRVVLAAGTAVEVSLTCVVAEPDGAPIEAVGFCLLHREPERDAEELLAEAVAVAASADAAVVVVATTERVESEGFDRTTLALPGRQDELVARVAAVSPRTVVVVNSGSPVELPWRDDVAAVLLGWFPGQEAGGALADVLLGGCEPGGRLPTTWPVRLADAPVTRVAPVGGELAYAEGLFIGYRAWEKARATPAYAFGHGLGYTDWSYETLDMGGTGTARVRVRNTGSRPGREVVQVYLAVPPGDRAGRPVRRLAGFASVEAGPGETVEAVVALDPRAFEVWDDEAAGWRRIPGTYTAEAGRSIADRRLTAPVEVA
# B5: 9 (protein, listed as Streptomyces rubrolavendulae)
# chain: MTADEAVEAALGALDLDTKARLLAGQDMWTLPAVPAVGLASLVMSDGPVGVRGVRWTADDPSVTLPSPTALAACWDPELARRAGRLLAQEARRKGVHVVLAPTVNLHRSPLGGRHFEAYSEDPYLTAETGAACVRGIQDGGVAATVKHFVANDAETDRFTVDNTVPPRALRELYLAPFEAIVRCARPWALMAAYNQVNGVTMTENRHLQTEVLRDAWGFDGVVVSDWFAARSTTGALVGGLDVAMPGPHTVYGDALAAAVRAGDVDEALVDRSVRRVLRLAARVGALEGAEPAVPSPPAHVDGEALAREIAHRSFVLVRNECGALPLDPARSRRVALVGAAARDARVLGGGSAHVFPARTVSPLDGLAAALPEGTELVHARGADLSGEPAPAGPGFALRAVCRDAEGTVLADVPLPSGQIQWIGADLPGGVTHEALHTVEVTGTYTPREGGAHGFGTRGVGAFTLTVGGRVLYDGTREAEPAGDPFEAFAGTPAEHGAADLAEGVPVEVSLRHTVDRDRPAPLPAVVFSLLHRPPRRDPDELIAEAVEAARGADAAVVVVATTERVESEGFDRADLRLPGRQDDLVRAVAAANPRTVVVVNAGAPVEMPWRDDVAAVLLTWFPGQEGGAALADVLLGAEEPGGRLPTTWPAALADAPVTAVTPVDGELRYEEGPFIGYRAWDRAPGGPAPAYPFGHGLGYTTWEYESLVVTPATARVRVRNTGTRPGREVIQLYVAPRADLAERPARWLVGFASVTAGPGARAEAEIRFAPRPFDVWDEEAGAWTAVPGQYEIRAGRSLTDTRLTVTLELD
# B6: 133 (protein, listed as Aquimixticola soesokkakensis)
# chain: MTDSTATPPDPIAAKLTFARGRDYWTTQAAPEIGLRALRFADGPHGLRVQDDENPDHLGLERSAPATCFPPAVTLASSWDAALIEEVGAALGREARAAGVDVVLGPGLNLKRSPLCGRNFEYYSEDPMLSGLLAGASARGIQSVGVGACLKHFAANSQEGDRNRISADIDERSLRELYLRNFQLALEASGAWSIMTSYNRINGLHASQDPWLLTQVLREEWGFDGLVISDWGGVYDPVAALKAGMDLRMPGGALDDRLIAAHARGEIAEGDLDRVIANTTRLAERTRPRDTDVPPDVEAHHALVRRAAAESSVLLKNDGVLPLDPARYPKVAILGELARTPRIQGSGSSRVHPRRVVAPLDVLRERLAQSGAQVAFAPAYGLQNGPADAALITEALQVARDADIVLLFSGLTDAAEAEGSDRTHIDLPDQQLTLLAALADCDTPLVVSLANGAVVRSTQWRDTAQAIVEFWLSGQAHGETVADVLLGDVPPAGRLAQTIPRRLQDTPAFLDFPGEHRHVRHSEGLHIGYRWYDARDLAVDYPFGHGLSYTSFDYEELEIDVRASDDDIAFVARLTLRNSGARAGSEVVQLYASDPSTAYQTPPRELRGWQKVHLEAGESCAVSIPVKRAHLGHWHSGLKRWVFAGGPMTLHVGASSRDLRLTCETELHGEALPVVLTPWSLFGEWMQHPVMGPRIEALFASRGGVKGRAGDLLSDPAGRNTVYINPLAMLAQFPGVPLDQSDLETLCAEAAALA
# Assays:
# Type in all cases: biochemical, Quillaja saponaria
# [1] = Experiment 4-4: screening of glucosidases for deglycosylation of QS-18 in crude bark extract (1 in 20 dilution) to QS-21; details: CBE 1 in 20 dilution, pH 6, 25 degC, 18 hours; % conversion of Middle Peak by UV HPLC
# Protocol: Lysates were prepared as in Experiment 4-2.
# Crude bark extract (CBE) was adjusted to pH 6 by dropwise addition of 2M NaOH with stirring. 25 uL of clarified lysate was transferred to a reaction plate, 22.5 ul of 100 mM potassium phosphate buffer pH 6 was added, 2.5 ul CBE at pH 6 was added. Reaction plates were sealed, incubated at 25 degC with shaking for 18 hours, then quenched by addition of 50 uL acetonitrile (MeCN). Quenched reaction plates were re-sealed and incubated at 20 degC with shaking for 10 min. The reaction plates were centrifuged (10 min, 4 degC) and analysed by UV HPLC with the method below:
# Three key peaks of interest are apparent using this chromatography: Left Peak (retention time approximately 2.30-2.35 min) comprising mainly QS-17 family components; Middle Peak (retention time approximately 2.37-2.42 min) comprising mainly QS-18 family components and desglucosyl-QS-17 family components; and Right Peak (retention time approximately 2.44-2.50 min) comprising mainly QS-21 family components. Peak identity was supported by MS/MS.
# Enzyme activity is calculated as the % conversion of the Middle Peak present in the crude bark extract: […]
# [2] = Experiment 4-2: screening of glucosidases for deglycosylation with purified QS-18 (1 mg/ml) at pH 6 and 30 deg C; details: pH 6, 30 degC, 18 hrs, clarified lysate, LCMS/MS
# In short: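 Enzyme activity derived from LC-MS/MS analysis after MeCN quench. Substrate QS-18 (1 mg/ml final) was exposed overnight (18 h, 30 °C, pH 6 phosphate buffer) to clarified lysates containing candidate glucosidases.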
# [3] = Experiment 4-1: screening of glucosidases for deglycosylation with purified QS-18 (0.04 mg/ml) at pH 7.5 and room temperature; details: pH 7.5, room temperature, 20 h, clarified E. coli lysate, QS-18 2150 to QS-21 1988 by LCMS/MS
# In short: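 Deglycosylation measured by LC-MS/MS as % conversion after 20 h room-temperature incubation of QS-18 phenyl fraction (0.04 mg/ml final) with polymyxin B/lysozyme lysates, pH 7.5 phosphate, of E. coli BL21(DE3) expressing each enzyme; MeCN quench. Positives exceeded negative control by >3 S.D.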
Molecule,Expt 4-4 % conv [1] [%],Expt 4-2 % conv [2] [%],Expt 4-1 % conv [3] [%]
B1,<3,0.9,6.3
B2,<3,0.5,9.0
B3,<3,0.5,6.3
B4,<3,0.5,4.7
B5,<3,0.9,9.2
B6,<3,0.4,3.7
